One molecule from PMC3464217, “Anti-HIV Double Variable Domain Immunoglobulins Binding Both gp41 and gp120 for Targeted Delivery of Immunoconjugates” (PLoS ONE, 2012) can be followed below.

This assay deals with T1, recombinant gp160 (HIV-1 group M subtype B, IIIB (clone …, UniProt P03375, strain)).
T1 construct: also called rgp160; source: bought: Quality Biological; recombinant, expressed in mammalian cells
The experiment in a line: SPR. As to conditions: both partners purified.

B1: 7B2 (antibody, V domains shown)
VH: QVQLVQSGGGVFKPGGSLRLSCEASGFTFTEYYMTWVRQAPGKGLEWLAYISKNGEYSKYSPSSNGRFTISRDNAKNSVFLQLDRLSADDTAVYYCARADGLTYFSELLQYIFDLWGQGARVTVSS
VL: DIVMTQSPDSLAVSPGERATIHCKSSQTLLYSSNNRHSIAWYQQRPGQPPKLLLYWASMRLSGVPDRFSGSGSGTDFTLTINNLQAEDVAIYYCHQYSSHPPTFGHGTRVELR
notes: also called anti-gp41 Ab (7B2); 7B2 parent; source: 293F cells, transiently transfected; purified from supernatant on Protein A agarose
B1: the binding result is “binds”.
